Measured values as given in US20220056119A1.

Legend:
[1] = target: activin Type II receptors (ActRIIA and ActRIIB) on A204/CAGAx12-Luc cells; test: cell-based or functional assay
[2] = target: Activin A (R&D Systems, #338-AC) (human) (UniProt P08476); test: SPR blocking: 5 nM Activin A + 7.50 nM binder over hActRIIB-hFc (Control 4) surface
[3] = target: Activin A (R&D Systems, #338-AC) (human) (UniProt P08476); test: SPR blocking: 5 nM Activin A + 15 nM binder over hActRIIB-hFc (Control 4) surface
[4] = target: Activin A (R&D Systems, #338-AC) (human) (UniProt P08476); test: SPR blocking: 5 nM Activin A + 60 nM binder over hActRIIB-hFc (Control 4) surface
[5] = target: Activin A (R&D Systems, #338-AC) (human) (UniProt P08476); test: SPR blocking: 5 nM Activin A + 0.94 nM binder over hActRIIB-hFc (Control 4) surface
[6] = target: Activin A (R&D Systems, #338-AC) (human) (UniProt P08476); test: SPR blocking: 5 nM Activin A + 1.88 nM binder over hActRIIB-hFc (Control 4) surface
[7] = target: Activin A (R&D Systems, #338-AC) (human) (UniProt P08476); test: SPR blocking: 5 nM Activin A + 30 nM binder over hActRIIB-hFc (Control 4) surface
[8] = target: Activin A (R&D Systems, #338-AC) (human) (UniProt P08476); test: SPR blocking: 5 nM Activin A + 3.75 nM binder over hActRIIB-hFc (Control 4) surface
[9] = target: Activin A (R&D Systems, #338-AC) (human) (UniProt P08476); test: SPR blocking: 5 nM Activin A + 0.00 nM binder over hActRIIB-hFc (Control 4) surface
[10] = target: Activin A (homodimer of two inhibin betaA subunits) (human) (UniProt P08476); test: cell-based or functional assay
Chain of Activin A (homodimer of two inhibin betaA subunits) (human) (P08476 311-426 limits assumed): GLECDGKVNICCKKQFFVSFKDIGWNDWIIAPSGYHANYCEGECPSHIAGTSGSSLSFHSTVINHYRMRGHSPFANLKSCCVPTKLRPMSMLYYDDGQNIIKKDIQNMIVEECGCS

Chain of Activin A (R&D Systems, #338-AC) (human) (P08476 311-426 limits assumed): as above

activation of the A204/CAGAx12-Luc cell line (Smad 2/3-luciferase reporter), EC50 [1] [nM]	% bound RU w/ no inhibitor [2] [%]	% bound RU w/ no inhibitor [3] [%]	% bound RU w/ no inhibitor [4] [%]	% bound RU w/ no inhibitor [5] [%]	% bound RU w/ no inhibitor [6] [%]	% bound RU w/ no inhibitor [7] [%]	% bound RU w/ no inhibitor [8] [%]	% bound RU w/ no inhibitor [9] [%]	Substance	further results
0.019									Activin AB (heterodimer of one betaA subunit and one betaB subunit) (from UniProt P08476 311-426; P09529 293-407) (ligand)	
	107	110	115	105	105	111	104	100	isotype control antibody	

Further lines, the substance ahead of its results:

Substance	activation of the A204/CAGAx12-Luc cell line (Smad 2/3-luciferase reporter), EC50 [1] [nM]	% bound RU w/ no inhibitor [2] [%]	% bound RU w/ no inhibitor [3] [%]	% bound RU w/ no inhibitor [4] [%]	% bound RU w/ no inhibitor [5] [%]	% bound RU w/ no inhibitor [6] [%]	% bound RU w/ no inhibitor [7] [%]	% bound RU w/ no inhibitor [8] [%]	% bound RU w/ no inhibitor [9] [%]	further results
Activin AC (heterodimer of one betaA subunit and one betaC subunit) (from UniProt P55103 237-352) (ligand)	4.4									
Control 3 (murine anti-Activin A monoclonal antibody from R&D Systems, catalog number MAB3381)		33	2	2	135	133	1	120	100	
GDF11 (from UniProt O95390 299-407) (ligand)										activation of A204/CAGAx12-Luc cells, EC50 [1]: 0.084 nM; activation of A204/CAGAx12-Luc cells, EC50 (separate day) [1]: 0.166 nM
isotype control antibody (Example 7)										action potential duration, cardiomyocytes chronically treated with 1 nM activin A plus isotype control [10]: 0.56 s; calcium flux falling time, cardiomyocytes treated with activin A plus isotype control [10]: 0.75 s; calcium flux rising time, cardiomyocytes treated with activin A plus isotype control [10]: 0.36 s; field potential amplitude, cardiomyocytes chronically exposed to activin A plus 25 nM isotype control [10]: 42.9 µV; field potential downstroke velocity, cardiomyocytes exposed to activin A plus 25 nM isotype control [10]: 0.019 V/sec; peak calcium handling amplitude, cardiomyocytes treated with activin A plus isotype control [10]: 484 RFU
